{"source": "paper PMC9805502", "target": "HilD^Q39E,N44D,H95L mutant (recombinant) (Salmonella enterica serovar Typhimurium strain 14028s)", "assay": "mass photometry", "data": [{"substance": "HilD^Q39E,N44D,H95L mutant (recombinant) (natural protein)", "values": [{"measurement": "stoichiometry N", "result": 2}]}]}
